From patent US20140227782A1 (UMUVERSIDAD DE VALLADOLID, published 2014) come the findings set out here.

The test addresses T1, Modified biopolymer 3' (biopolymer 3, 427 amino acids, structure D-B84, with amino groups transformed into … (amino groups of the lysines of peptide D transformed into azide groups (lysine transformation rate 50%); covalently grafted to alkynyl-functionalised glass by click cycloaddition).
T1 construct: In the assay it was grafted to a glass surface through 1,2,3-triazole links; also called POLYM; 3'
T1 chain: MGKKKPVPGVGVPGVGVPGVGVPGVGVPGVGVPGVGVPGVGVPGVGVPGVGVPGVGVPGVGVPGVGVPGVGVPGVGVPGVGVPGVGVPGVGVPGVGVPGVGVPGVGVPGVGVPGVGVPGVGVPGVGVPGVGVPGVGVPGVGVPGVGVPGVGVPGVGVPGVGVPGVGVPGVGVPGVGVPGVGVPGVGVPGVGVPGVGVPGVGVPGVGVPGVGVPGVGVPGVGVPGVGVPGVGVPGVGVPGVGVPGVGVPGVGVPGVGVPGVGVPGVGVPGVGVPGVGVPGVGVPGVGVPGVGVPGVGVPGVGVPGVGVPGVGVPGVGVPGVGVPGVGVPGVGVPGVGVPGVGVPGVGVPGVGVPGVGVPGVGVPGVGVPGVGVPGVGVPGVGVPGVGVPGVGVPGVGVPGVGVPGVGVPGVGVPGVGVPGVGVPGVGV
The test is described as follows: ToF-SIMS of a glass surface grafted with polymer 3' after immersion in an aqueous solution of polymer 4.

B1: Biopolymer 4 (371 amino acids), structure B14-A2-B14 (other)
chain: MESLLPVPGVGVPGVGVPGVGVPGVGVPGVGVPGVGVPGVGVPGVGVPGVGVPGVGVPGVGVPGVGVPGVGVPGVGVPGIGVPGIGVPGIGVPGIGVPGIGVPGIGVPGIGVPGIGVPGIGVPGIGAVTGRGDSPASSVPGIGVPGIGVPGIGVPGIGVPGIGVPGIGVPGIGVPGIGVPGIGVPGIGVPGIGVPGIGVPGIGVPGIGVPGIGVPGIGVPGIGVPGIGVPGIGVPGIGAVTGRGDSPASSVPGIGVPGIGVPGIGVPGIGVPGIGVPGIGVPGIGVPGIGVPGIGVPGIGVPGVGVPGVGVPGVGVPGVGVPGVGVPGVGVPGVGVPGVGVPGVGVPGVGVPGVGVPGVGVPGVGVPGVGV
notes: Unmodified polymer 4, adsorbed from aqueous solution onto the surface grafted with polymer 3'; also called POLYM
As to B1, the binding result is on record as “binds”.
